Results from US20200040059A1.

Target: human CTLA4, full length, on transfected HEK293 cells (human) (UniProt P16410)
Experiment: flow cytometry, Fc fusion at 66.6 nM on HEK293 cells transfected with CTLA4

CD80 IgV Fc (wild-type CD80 IgV domain fused to Fc), sequence (P33681 35-141 limits assumed): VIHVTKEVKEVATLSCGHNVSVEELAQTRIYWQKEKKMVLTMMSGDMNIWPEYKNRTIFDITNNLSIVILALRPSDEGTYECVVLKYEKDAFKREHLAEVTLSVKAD
human CTLA4, full length, on transfected HEK293 cells (human), sequence (P16410 36-223 limits assumed): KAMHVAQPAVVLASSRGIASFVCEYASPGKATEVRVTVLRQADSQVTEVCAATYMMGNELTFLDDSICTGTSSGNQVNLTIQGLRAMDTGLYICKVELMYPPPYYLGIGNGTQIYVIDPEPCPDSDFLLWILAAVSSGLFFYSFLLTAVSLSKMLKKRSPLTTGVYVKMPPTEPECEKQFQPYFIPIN

| Substance | MFI at 66.6 nM |
| --- | --- |
| CD80 variant IgV-Fc A26P/E35D/M43I/L85Q/E88D (from UniProt P33681 35-141) (Fc fusion) | 83100 MFI |
| CD80 variant IgV-Fc Q27H/E35G/A71D/L72P/T79I (from UniProt P33681 35-141) (Fc fusion) | 85100 MFI |
| CD80 variant IgV-Fc M47V/I69F/A71D/V83I (from UniProt P33681 35-141) (Fc fusion) | 76900 MFI |
| CD80 variant IgV-Fc E35D/D46V/L85Q (from UniProt P33681 35-141) (Fc fusion) | 86000 MFI |
| CD80 variant IgV-Fc E23G/A26S/E35D/T62N/A71D/L72V/L85M (from UniProt P33681 35-141) (Fc fusion) | 59000 MFI |
| CD80 variant IgV-Fc Q27L/E35D/M47I/T57I/L70Q/E88D (from UniProt P33681 35-141) (Fc fusion) | 59800 MFI |

The next lines start with the values.

| MFI at 66.6 nM | Substance |
| --- | --- |
| 45000 MFI | CD80 variant IgV-Fc L70Q/A71D (from UniProt P33681 35-141) (Fc fusion) |
| 60300 MFI | CD80 variant IgV-Fc V20I/A71D (from UniProt P33681 35-141) (Fc fusion) |
| 40300 MFI | CD80 variant IgV-Fc A26E/E35D/M47L/L85Q (from UniProt P33681 35-141) (Fc fusion) |
| 20700 MFI | CD80 IgV Fc (wild-type CD80 IgV domain fused to Fc) (from UniProt P33681 35-141) (Fc fusion) |
| 2970 MFI | CD80 variant IgV-Fc V22L/E35D/M43L/A71G/D76H (from UniProt P33681 35-141) (Fc fusion) |
| 102000 MFI | CD80 variant IgV-Fc E35D/M43L/L70M (from UniProt P33681 35-141) (Fc fusion) |

Target: CTLA4 (human) (UniProt P16410)
Sequence (P16410 36-223 limits assumed): as above
Experiment: flow cytometry on HEK293 cells transfected with CTLA4

| Substance | MFI at 66.6 nM |
| --- | --- |
| CD80 IgV-Fc L25S/E35D/M47I/D90N (from UniProt P33681 35-141) (Fc fusion) | 61300 MFI |
| CD80 IgV-Fc M47V/N48H (from UniProt P33681 35-141) (Fc fusion) | 207000 MFI |
| CD80 IgV-Fc M42I/I61V/A71D (from UniProt P33681 35-141) (Fc fusion) | 54500 MFI |
| CD80 IgV-Fc L72P/T79I (from UniProt P33681 35-141) (Fc fusion) | 50200 MFI |
| CD80 IgV-Fc E35D/M47I/L65P/D90N (from UniProt P33681 35-141) (Fc fusion) | 4410 MFI |
| CD80 IgV-Fc T79P (from UniProt P33681 35-141) (Fc fusion) | 2000 MFI |
| CD80 IgV-Fc T57I (from UniProt P33681 35-141) (Fc fusion) | 394000 MFI |

Other lines, results leading:

| MFI at 66.6 nM | Substance |
| --- | --- |
| 220000 MFI | CD80 IgV-Fc A71D (from UniProt P33681 35-141) (Fc fusion) |
| 197000 MFI | CD80 IgV-Fc T13R/C16R/L70Q/A71D (from UniProt P33681 35-141) (Fc fusion) |

Target: PD-L1 (human) (UniProt Q9NZQ7)
Sequence (Q9NZQ7 19-290 limits assumed): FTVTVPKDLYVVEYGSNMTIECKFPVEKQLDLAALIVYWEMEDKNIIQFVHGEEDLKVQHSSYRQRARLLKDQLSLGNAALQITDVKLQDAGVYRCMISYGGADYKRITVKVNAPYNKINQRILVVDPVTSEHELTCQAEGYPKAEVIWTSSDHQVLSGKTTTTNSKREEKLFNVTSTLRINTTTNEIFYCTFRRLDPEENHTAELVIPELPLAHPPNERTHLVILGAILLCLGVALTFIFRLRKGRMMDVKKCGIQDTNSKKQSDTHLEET
Experiment: flow cytometry on HEK293 cells transfected with PD-L1

| Substance | MFI at 22.2 nM |
| --- | --- |
| CD80 IgV-Fc L25S/E35D/M47I/D90N (from UniProt P33681 35-141) (Fc fusion) | 20900 MFI |
| CD80 IgV-Fc M47V/N48H (from UniProt P33681 35-141) (Fc fusion) | 146000 MFI |
| CD80 IgV-Fc M42I/I61V/A71D (from UniProt P33681 35-141) (Fc fusion) | 4230 MFI |
| CD80 IgV-Fc L72P/T79I (from UniProt P33681 35-141) (Fc fusion) | 6020 MFI |
| CD80 IgV-Fc E35D/M47I/L65P/D90N (from UniProt P33681 35-141) (Fc fusion) | 4030 MFI |
| CD80 IgV-Fc T79P (from UniProt P33681 35-141) (Fc fusion) | 4410 MFI |
| CD80 IgV-Fc T57I (from UniProt P33681 35-141) (Fc fusion) | 3380 MFI |

Other lines, results leading:

| MFI at 22.2 nM | Substance |
| --- | --- |
| 29600 MFI | CD80 IgV-Fc A71D (from UniProt P33681 35-141) (Fc fusion) |
| 9520 MFI | CD80 IgV-Fc T13R/C16R/L70Q/A71D (from UniProt P33681 35-141) (Fc fusion) |

Target: human CD28, full length, on transfected HEK293 cells (human) (UniProt P10747)
Experiment: flow cytometry, Fc fusion at 66.6 nM on HEK293 cells transfected with CD28

| Substance | MFI at 66.6 nM |
| --- | --- |
| CD80 variant IgV-Fc A26P/E35D/M43I/L85Q/E88D (from UniProt P33681 35-141) (Fc fusion) | 5410 MFI |
| CD80 variant IgV-Fc M47V/I69F/A71D/V83I (from UniProt P33681 35-141) (Fc fusion) | 15900 MFI |
| CD80 variant IgV-Fc E35D/D46V/L85Q (from UniProt P33681 35-141) (Fc fusion) | 7510 MFI |
| CD80 variant IgV-Fc E23G/A26S/E35D/T62N/A71D/L72V/L85M (from UniProt P33681 35-141) (Fc fusion) | 5480 MFI |

The next lines start with the values.

| MFI at 66.6 nM | Substance |
| --- | --- |
| 18600 MFI | CD80 variant IgV-Fc L70Q/A71D (from UniProt P33681 35-141) (Fc fusion) |
| 2270 MFI | CD80 variant IgV-Fc A26E/E35D/M47L/L85Q (from UniProt P33681 35-141) (Fc fusion) |
| 1620 MFI | CD80 IgV Fc (wild-type CD80 IgV domain fused to Fc) (from UniProt P33681 35-141) (Fc fusion) |
| 1500 MFI | CD80 variant IgV-Fc V22L/E35D/M43L/A71G/D76H (from UniProt P33681 35-141) (Fc fusion) |

Target: human PD-L1, full length, on transfected HEK293 cells (human) (UniProt Q9NZQ7)
Sequence (Q9NZQ7 19-290 limits assumed): as above
Experiment: flow cytometry, Fc fusion at 22.2 nM on HEK293 cells transfected with PD-L1

| Substance | MFI at 22.2 nM |
| --- | --- |
| CD80 variant IgV-Fc A26P/E35D/M43I/L85Q/E88D (from UniProt P33681 35-141) (Fc fusion) | 9510 MFI |
| CD80 variant IgV-Fc Q27H/E35G/A71D/L72P/T79I (from UniProt P33681 35-141) (Fc fusion) | 1450 MFI |
| CD80 variant IgV-Fc M47V/I69F/A71D/V83I (from UniProt P33681 35-141) (Fc fusion) | 3400 MFI |
| CD80 variant IgV-Fc E35D/D46V/L85Q (from UniProt P33681 35-141) (Fc fusion) | 38100 MFI |
| CD80 variant IgV-Fc Q27L/E35D/M47I/T57I/L70Q/E88D (from UniProt P33681 35-141) (Fc fusion) | 1050 MFI |

Continued, values first:

| MFI at 22.2 nM | Substance |
| --- | --- |
| 1690 MFI | CD80 variant IgV-Fc L70Q/A71D (from UniProt P33681 35-141) (Fc fusion) |
| 3550 MFI | CD80 variant IgV-Fc V20I/A71D (from UniProt P33681 35-141) (Fc fusion) |
| 55500 MFI | CD80 variant IgV-Fc A26E/E35D/M47L/L85Q (from UniProt P33681 35-141) (Fc fusion) |
| 1770 MFI | CD80 IgV Fc (wild-type CD80 IgV domain fused to Fc) (from UniProt P33681 35-141) (Fc fusion) |
| 1850 MFI | CD80 variant IgV-Fc V22L/E35D/M43L/A71G/D76H (from UniProt P33681 35-141) (Fc fusion) |
| 40600 MFI | CD80 variant IgV-Fc E35D/M43L/L70M (from UniProt P33681 35-141) (Fc fusion) |

Target: CD28 (human) (UniProt P10747)
Experiment: flow cytometry on HEK293 cells transfected with CD28

| Substance | MFI at 66.6 nM |
| --- | --- |
| CD80 IgV-Fc L25S/E35D/M47I/D90N (from UniProt P33681 35-141) (Fc fusion) | 4840 MFI |
| CD80 IgV-Fc M47V/N48H (from UniProt P33681 35-141) (Fc fusion) | 14600 MFI |
| CD80 IgV-Fc M42I/I61V/A71D (from UniProt P33681 35-141) (Fc fusion) | 6070 MFI |
| CD80 IgV-Fc L72P/T79I (from UniProt P33681 35-141) (Fc fusion) | 3400 MFI |
| CD80 IgV-Fc E35D/M47I/L65P/D90N (from UniProt P33681 35-141) (Fc fusion) | 2530 MFI |
| CD80 IgV-Fc T79P (from UniProt P33681 35-141) (Fc fusion) | 2660 MFI |
| CD80 IgV-Fc T57I (from UniProt P33681 35-141) (Fc fusion) | 23600 MFI |

Next, values leading:

| MFI at 66.6 nM | Substance |
| --- | --- |
| 16800 MFI | CD80 IgV-Fc A71D (from UniProt P33681 35-141) (Fc fusion) |
| 16100 MFI | CD80 IgV-Fc T13R/C16R/L70Q/A71D (from UniProt P33681 35-141) (Fc fusion) |
